{
  "source": "the RNAGym collection of RNA variant scans (doi:10.1021/acssynbio.7b00057)",
  "parents": {"B1": {"name": "Pistol ribozyme (parent)", "chain": "GGGUCGUUGUUCCAUAAUCGCGUGGAUAUGGCACGCAAGUUUCUACCGGGCACCGUAAAUGUCCGACUGGAGCCGUUCGGGCGGCUAUAAACAGACCUCAGGCCCGAAGCGUGGCGGCACCUGCCGCCGGUGGUAAAAAAGAUCGGAAGAGCACACGUCU"}},
  "data": [
    {"variants_of": "B1", "test": "aptazyme ON/OFF ratio, guanine; higher = stronger switching; co-transcriptional cleavage with and without guanine", "values": [
      {"variant": "GGGUCGAGAAGUAAUAAUCGCGUGGAUAUGGCACGCAAGUUUCUACCGGGCACCGUAAAUGUCCGACUGGAGCCGUUCGGGCGGCUAUAAACAGACCUCAGGCCCGAAGCGUGGCGGCACCUGCCGCCGGUGGUAAAAAAGAUCGGAAGAGCACACGUCU", "note": "[U7A U8G G9A U10A U11G C12U C13A]", "aptazyme ON/OFF ratio": 1},
      {"variant": "GGGUCGAGAAGUUAUAAUCGCGUGGAUAUGGCACGCAAGUUUCUACCGGGCACCGUAAAUGUCCGACUGGAGCCGUUCGGGCGGCUAUAAACAGACCUCAGGCCCGAAGCGUGGCGGCACCUGCCGCCGGUGGUAAAAAAGAUCGGAAGAGCACACGUCU", "note": "[U7A U8G G9A U10A U11G C12U C13U]", "aptazyme ON/OFF ratio": 1.33},
      {"variant": "GGGUCGAGAAGUGAUAAUCGCGUGGAUAUGGCACGCAAGUUUCUACCGGGCACCGUAAAUGUCCGACUGGAGCCGUUCGGGCGGCUAUAAACAGACCUCAGGCCCGAAGCGUGGCGGCACCUGCCGCCGGUGGUAAAAAAGAUCGGAAGAGCACACGUCU", "note": "[U7A U8G G9A U10A U11G C12U C13G]", "aptazyme ON/OFF ratio": 1.52},
      {"variant": "GGGUCGAGACUGAAUAAUCGCGUGGAUAUGGCACGCAAGUUUCUACCGGGCACCGUAAAUGUCCGACUGGAGCCGUUCGGGCGGCUAUAAACAGACCUCAGGCCCGAAGCGUGGCGGCACCUGCCGCCGGUGGUAAAAAAGAUCGGAAGAGCACACGUCU", "note": "[U7A U8G G9A U10C C12G C13A]", "aptazyme ON/OFF ratio": 1.19},
      {"variant": "GGGUCGAGACUGUAUAAUCGCGUGGAUAUGGCACGCAAGUUUCUACCGGGCACCGUAAAUGUCCGACUGGAGCCGUUCGGGCGGCUAUAAACAGACCUCAGGCCCGAAGCGUGGCGGCACCUGCCGCCGGUGGUAAAAAAGAUCGGAAGAGCACACGUCU", "note": "[U7A U8G G9A U10C C12G C13U]", "aptazyme ON/OFF ratio": 1.17},
      {"variant": "GGGUCGAGACUGGAUAAUCGCGUGGAUAUGGCACGCAAGUUUCUACCGGGCACCGUAAAUGUCCGACUGGAGCCGUUCGGGCGGCUAUAAACAGACCUCAGGCCCGAAGCGUGGCGGCACCUGCCGCCGGUGGUAAAAAAGAUCGGAAGAGCACACGUCU", "note": "[U7A U8G G9A U10C C12G C13G]", "aptazyme ON/OFF ratio": 1.38},
      {"variant": "GGGUCGAGAAGUCAUAAUCGCGUGGAUAUGGCACGCAAGUUUCUACCGGGCACCGUAAAUGUCCGACUGGAGCCGUUCGGGCGGCUAUAAACAGACCUCAGGCCCGAAGCGUGGCGGCACCUGCCGCCGGUGGUAAAAAAGAUCGGAAGAGCACACGUCU", "note": "[U7A U8G G9A U10A U11G C12U]", "aptazyme ON/OFF ratio": 1.14},
      {"variant": "GGGUCGAGAAGGUAUAAUCGCGUGGAUAUGGCACGCAAGUUUCUACCGGGCACCGUAAAUGUCCGACUGGAGCCGUUCGGGCGGCUAUAAACAGACCUCAGGCCCGAAGCGUGGCGGCACCUGCCGCCGGUGGUAAAAAAGAUCGGAAGAGCACACGUCU", "note": "[U7A U8G G9A U10A U11G C12G C13U]", "aptazyme ON/OFF ratio": 1.48},
      {"variant": "GGGUCGAGAAGGGAUAAUCGCGUGGAUAUGGCACGCAAGUUUCUACCGGGCACCGUAAAUGUCCGACUGGAGCCGUUCGGGCGGCUAUAAACAGACCUCAGGCCCGAAGCGUGGCGGCACCUGCCGCCGGUGGUAAAAAAGAUCGGAAGAGCACACGUCU", "note": "[U7A U8G G9A U10A U11G C12G C13G]", "aptazyme ON/OFF ratio": 1.46},
      {"variant": "GGGUCGAGAAGCGAUAAUCGCGUGGAUAUGGCACGCAAGUUUCUACCGGGCACCGUAAAUGUCCGACUGGAGCCGUUCGGGCGGCUAUAAACAGACCUCAGGCCCGAAGCGUGGCGGCACCUGCCGCCGGUGGUAAAAAAGAUCGGAAGAGCACACGUCU", "note": "[U7A U8G G9A U10A U11G C13G]", "aptazyme ON/OFF ratio": 1.27},
      {"variant": "GGGUCGAGAAGCAAUAAUCGCGUGGAUAUGGCACGCAAGUUUCUACCGGGCACCGUAAAUGUCCGACUGGAGCCGUUCGGGCGGCUAUAAACAGACCUCAGGCCCGAAGCGUGGCGGCACCUGCCGCCGGUGGUAAAAAAGAUCGGAAGAGCACACGUCU", "note": "[U7A U8G G9A U10A U11G C13A]", "aptazyme ON/OFF ratio": 1.13},
      {"variant": "GGGUCGAGAAGCUAUAAUCGCGUGGAUAUGGCACGCAAGUUUCUACCGGGCACCGUAAAUGUCCGACUGGAGCCGUUCGGGCGGCUAUAAACAGACCUCAGGCCCGAAGCGUGGCGGCACCUGCCGCCGGUGGUAAAAAAGAUCGGAAGAGCACACGUCU", "note": "[U7A U8G G9A U10A U11G C13U]", "aptazyme ON/OFF ratio": 1.09},
      {"variant": "GGGUCGAGACUCCAUAAUCGCGUGGAUAUGGCACGCAAGUUUCUACCGGGCACCGUAAAUGUCCGACUGGAGCCGUUCGGGCGGCUAUAAACAGACCUCAGGCCCGAAGCGUGGCGGCACCUGCCGCCGGUGGUAAAAAAGAUCGGAAGAGCACACGUCU", "note": "[U7A U8G G9A U10C]", "aptazyme ON/OFF ratio": 2.9},
      {"variant": "GGGUCGAGACUAGAUAAUCGCGUGGAUAUGGCACGCAAGUUUCUACCGGGCACCGUAAAUGUCCGACUGGAGCCGUUCGGGCGGCUAUAAACAGACCUCAGGCCCGAAGCGUGGCGGCACCUGCCGCCGGUGGUAAAAAAGAUCGGAAGAGCACACGUCU", "note": "[U7A U8G G9A U10C C12A C13G]", "aptazyme ON/OFF ratio": 1.14},
      {"variant": "GGGUCGAGACUAUAUAAUCGCGUGGAUAUGGCACGCAAGUUUCUACCGGGCACCGUAAAUGUCCGACUGGAGCCGUUCGGGCGGCUAUAAACAGACCUCAGGCCCGAAGCGUGGCGGCACCUGCCGCCGGUGGUAAAAAAGAUCGGAAGAGCACACGUCU", "note": "[U7A U8G G9A U10C C12A C13U]", "aptazyme ON/OFF ratio": 1.12},
      {"variant": "GGGUCGAGACUAAAUAAUCGCGUGGAUAUGGCACGCAAGUUUCUACCGGGCACCGUAAAUGUCCGACUGGAGCCGUUCGGGCGGCUAUAAACAGACCUCAGGCCCGAAGCGUGGCGGCACCUGCCGCCGGUGGUAAAAAAGAUCGGAAGAGCACACGUCU", "note": "[U7A U8G G9A U10C C12A C13A]", "aptazyme ON/OFF ratio": 1.05},
      {"variant": "GGGUCGAGACUGCAUAAUCGCGUGGAUAUGGCACGCAAGUUUCUACCGGGCACCGUAAAUGUCCGACUGGAGCCGUUCGGGCGGCUAUAAACAGACCUCAGGCCCGAAGCGUGGCGGCACCUGCCGCCGGUGGUAAAAAAGAUCGGAAGAGCACACGUCU", "note": "[U7A U8G G9A U10C C12G]", "aptazyme ON/OFF ratio": 1.35},
      {"variant": "GGGUCGAGACUACAUAAUCGCGUGGAUAUGGCACGCAAGUUUCUACCGGGCACCGUAAAUGUCCGACUGGAGCCGUUCGGGCGGCUAUAAACAGACCUCAGGCCCGAAGCGUGGCGGCACCUGCCGCCGGUGGUAAAAAAGAUCGGAAGAGCACACGUCU", "note": "[U7A U8G G9A U10C C12A]", "aptazyme ON/OFF ratio": 1.25}
    ]}
  ]
}
